# Assay results: publication PMC8049259, “Structure of the E. coli agmatinase, SPEB” (PLoS ONE, 2021)
# B1: E. coli agmatine ureohydrolase (agmatinase, SPEB) (enzyme, UniProt P60651 1-306, looked up)
# chain: MSTLGHQYDNSLVSNAFGFLRLPMNFQPYDSDADWVITGVPFDMATSGRAGGRHGPAAIRQVSTNLAWEHNRFPWNFDMRERLNVVDCGDLVYAFGDAREMSEKLQAHAEKLLAAGKRMLSFGGDHFVTLPLLRAHAKHFGKMALVHFDAHTDTYANGCEFDHGTMFYTAPKEGLIDPNHSVQIGIRTEFDKDNGFTVLDACQVNDRSVDDVIAQVKQIVGDMPVYLTFDIDCLDPAFAPGTGTPVIGGLTSDRAIKLVRGLKDLNIVGMDVVEVAPAYDQSEITALAAATLALEMLYIQAAKKGE
# notes: E. coli agmatinase SPEB, UniProt P60651, a 306 residue protein; cloned in pTHT (a pET-28 variant with a TEV protease site in place of the thrombin site); Two Mn2+ ions were modelled in each active site; also called agmatine amidinohydrolase; SPEB-THT (plasmid); source: E. coli BL21(DE3), purified (Ni-NTA, size exclusion chromatography)
# Molecular target: the molecule itself
# Assay: SEC; Superdex 200 10/300 GL, 30 mM Tris pH 7.0, 50 mM sodium chloride; oligomeric state judged from the elution profile
protein,measurement,value
B1,stoichiometry N,6
